How the values were obtained:
[1] = molecular target: T1, recombinant soluble human CD154 (extracellular portion of human CD154 fused to mouse Cκ), trimeric (human; mouse, UniProt P29965 47-261); assay: cell-based or functional assay
T1 sequence (looked up): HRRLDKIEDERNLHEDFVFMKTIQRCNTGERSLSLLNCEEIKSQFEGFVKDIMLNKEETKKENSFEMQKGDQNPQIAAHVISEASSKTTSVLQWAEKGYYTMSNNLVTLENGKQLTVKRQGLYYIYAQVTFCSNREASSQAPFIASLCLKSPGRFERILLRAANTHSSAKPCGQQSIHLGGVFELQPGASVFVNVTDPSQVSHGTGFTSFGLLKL

[2] = molecular target: T1, recombinant soluble human CD154 …; assay: cell-free competitive binding assay: CD154-κ immobilised, biotinylated soluble human CD40, Eu-streptavidin fluorimetry
Protocol: The ability to inhibit the binding of CD154 to CD40 is tested in a cell-free competitive binding assay. Recombinant soluble human CD154 (i.e., the extracellular portion of human CD154 fused to mouse Cκ) is immobilized on microtiter plates and the plates incubated, in the presence or absence of a putative inhibitor, with biotinylated recombinant soluble human CD40. The fraction of CD40 bound to CD154 is fluorimetrically determined using Eu-labelled streptavidin as the detection reagent.

[3] = molecular target: T1, recombinant soluble human CD154 …; assay: SPR (BIAcore), ABI793 immobilised, CD154-κ 10 to 160 nM in solution, n = 3
Protocol: The association and dissociation rate constant for the binding of recombinant human CD154 to ABI793 is determined by BIAcore analysis. ABI793 is immobilized, and binding of soluble recombinant CD154 (CD154-κ) in a concentration range from 10 to 160 nM is measured by surface plasmon resonance. The chosen format represents a monovalent interaction. Data analysis is performed using the BIA evaluation software.

B1: ABI793 antibody (human anti-human CD154 monoclonal antibody from hybridoma # 207.2) (antibody, V domains shown)
VH: QVQLVQSGAEVQKPGSSVKVSCKASGGTFSNFAFNWVRQVPGQGLEWMGRILPSLDIASYAQKFQDRVTITADKSTSTAYMELSSLRSEDTAMYYCAREVDGGGFDYWGQGTLVTVSS
VL: DIQMTQSPSSLSASVGDRVTITCRASQGISSWLAWYQQKPEKAPKSLIYAASSLQSGVPSRFSGSGSGTDFTLTISSLQPEDFATYYCQQYNSYPFTFGGGTKVEIK
notes: FTC-labelled in part of the flow cytometry experiments; also called Antibody of the Invention
B1 was tested, and the “Inhibition of CD154/IL-4 driven B Cell Proliferation (3H-TdR uptake), IC50” value [1] was 0.073 µg/mL, the IC50 [2] was 0.075 µg/mL and the Kd [3] was 23.1 nM. It also gave a koff [3] of 0.000538 s⁻¹ and a kon [3] of 23400 M⁻¹ s⁻¹.
